The source of these data is the RNAGym collection of RNA variant scans (doi:10.1093/molbev/msab373).

The chains are these.
B1: Azoarcus group I ribozyme (parent)
chain: GUGCCUUGCGCCGGGAAACCACGCAAGGGAUGGUGUCAAAUUCGGCGAAACCUAAGCGCCCGCCCGGGCGUAUGGCAACGCCGAGCCAAGCUUCGGCGCCUGCGCCGAUGAAGGUGUAGAGACUAGACGGCACCCACCUAAGGCAAACGCUAUGGUGAAGGCAUAGUCCAGGGAGUGGCGAAAGUCACACAAACCGG

This data set covers variants of B1. Kind of data set: reverse-splicing fitness (ratio to wild type); higher = more active; in vitro selection; Mg2+ level not given. Put shortly: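 An in vitro group I ribozyme library with randomized positions was T7-transcribed and gel-purified. In triplicate, 10 pmol RNA in EPPS pH 7.5 was reacted with 50 pmoles of a 30-nt RNA substrate for 1 h at 37 °C across several added MgCl2 levels (1–48 mM), then stopped with EDTA. Products were reverse transcribed from a substrate-complementary primer, PCR-amplified and sequenced (HiSeq 4000). Fitness is a variant's read proportion after selection over that before, normalised to wild type.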
For the variant A111U A120U A145U C150U C169G U176C, the reverse-splicing fitness turned out to be 0.00596.

With A111U A120U A145U C150U, the reverse-splicing fitness was determined as 0.405.

As for A111U A120U A145U C150A, the reverse-splicing fitness worked out at 0.0527.

As for A111U A120U A145U C150G, the reverse-splicing fitness was 0.0604.

Take A111U A120U A145C C150G C169G U176A: the reverse-splicing fitness is 0.00251.

For the variant A111U A120U A145C C150G C169G U176G, the reverse-splicing fitness stood at 0.00228.

For the variant A111U A120U A145C C150G C169G U176C, the reverse-splicing fitness was determined as 0.00254.

Turning to A111U A120U A145C C150A C169A U176C, the reverse-splicing fitness came out at 0.00287.

Regarding A111U A120U A145C C150A C169A U176G, the reverse-splicing fitness is 0.00243.

On to A111U A120U A145C C150A C169A U176A, for which the reverse-splicing fitness was determined as 0.00272.

As to A111U A120U A145G C150U C169A U176G, the reverse-splicing fitness was 0.00237.

In the case of A111U A120U A145G C150U C169A U176C, the reverse-splicing fitness was 0.00389.

Take A111U A120U A145G C150U C169A U176A: the reverse-splicing fitness was 0.00497.

For the variant A111U A120G A145U C150A C169A U176A, the reverse-splicing fitness came out at 0.0123.

For A111U A120G A145U C150A C169A U176C, the reverse-splicing fitness was 0.0102.

Consider A111U A120G A145U C150A C169A U176G, for which the reverse-splicing fitness came to 0.00499.

For A111U A120U A145C C150U C169A U176G, the reverse-splicing fitness is 0.00275.

Regarding A111U A120U A145C C150U C169A U176C, the reverse-splicing fitness came to 0.00198.

Turning to A111U A120U A145C C150U C169A U176A, the reverse-splicing fitness was 0.00251.

A111U A120G A145U C150G C169A U176G: the reverse-splicing fitness worked out at 0.00496.

Regarding A111U A120G A145U C150G C169A U176C, the reverse-splicing fitness is 0.0105.

In the case of A111U A120G A145U C150G C169A U176A, the reverse-splicing fitness is 0.0103.

On to A111U A120G A145U U176C, for which the reverse-splicing fitness was determined as 0.0483.

For the variant A111U A120G A145U U176G, the reverse-splicing fitness was 0.00581.

For A111U A120G A145U U176A, the reverse-splicing fitness amounted to 0.0396.

A111U A120U A145U C150A C169U: the reverse-splicing fitness was determined as 0.00692.

Regarding A111U A120U A145U C150A C169A, the reverse-splicing fitness turned out to be 0.00249.

For the variant A111U A120U A145U C150A C169G, the reverse-splicing fitness is 0.0047.

As to A111U A120U A145G C150U C169U U176G, the reverse-splicing fitness came to 0.00291.

As for A111U A120U A145G C150U C169U U176A, the reverse-splicing fitness turned out to be 0.0115.

A111U A120U A145G C150U C169U U176C: the reverse-splicing fitness was found to be 0.0144.

On to A111U A120U A145U C150A C169A U176G, for which the reverse-splicing fitness was 0.00154.

Consider A111U A120U A145U C150A C169A U176C, for which the reverse-splicing fitness was 0.00214.

For the variant A111U A120U A145U C150A C169A U176A, the reverse-splicing fitness turned out to be 0.00284.

For A111U A120U A145U C150U C169A U176C, the reverse-splicing fitness was found to be 0.00309.

With A111U A120U A145U C150U C169A U176A, the reverse-splicing fitness was 0.00308.

On to A111U A120U A145U C150U C169A U176G, for which the reverse-splicing fitness stood at 0.00264.

For A111U A120U A145C C150G U176C, the reverse-splicing fitness turned out to be 0.0148.

As to A111U A120U A145C C150G U176G, the reverse-splicing fitness is 0.00337.

In the case of A111U A120U A145C C150G U176A, the reverse-splicing fitness amounted to 0.0107.

As to A111U A120U A145G C150G U176A, the reverse-splicing fitness stood at 0.01.

Consider A111U A120U A145G C150G U176C, for which the reverse-splicing fitness was found to be 0.0225.

With A111U A120U A145G C150G U176G, the reverse-splicing fitness was 0.00387.

A111U A120G C150A C169G U176G: the reverse-splicing fitness stood at 0.00494.

With A111U A120G C150A C169G U176C, the reverse-splicing fitness worked out at 0.0291.

Regarding A111U A120G C150A C169G U176A, the reverse-splicing fitness turned out to be 0.0251.

In the case of A111U A120G C150A C169U, the reverse-splicing fitness amounted to 0.0186.

In the case of A111U A120G C150A C169G, the reverse-splicing fitness amounted to 0.0231.

On to A111U A120G C150A C169A, for which the reverse-splicing fitness amounted to 0.015.

As for A111U A120U A145U C150U C169G, the reverse-splicing fitness is 0.0304.

For A111U A120U A145U C150U C169U, the reverse-splicing fitness is 0.0433.

Regarding A111U A120U A145U C150U C169A, the reverse-splicing fitness came out at 0.00404.

Take A111U A120U A145C C150A U176A: the reverse-splicing fitness amounted to 0.012.

As to A111U A120U A145C C150A U176C, the reverse-splicing fitness amounted to 0.00836.

As to A111U A120U A145C C150A U176G, the reverse-splicing fitness was determined as 0.00552.

As to A111U A120U A145C C150A C169U U176G, the reverse-splicing fitness came to 0.00241.

For the variant A111U A120U A145C C150A C169U U176C, the reverse-splicing fitness turned out to be 0.00285.

On to A111U A120U A145C C150A C169U U176A, for which the reverse-splicing fitness was found to be 0.00285.

For A111U A120U A145U C150U U176A, the reverse-splicing fitness is 0.16.

With A111U A120U A145U C150U U176C, the reverse-splicing fitness worked out at 0.174.

For the variant A111U A120U A145U C150U U176G, the reverse-splicing fitness was found to be 0.0292.

On to A111U A120G A145U C150A U176C, for which the reverse-splicing fitness was 0.018.

On to A111U A120G A145U C150A U176G, for which the reverse-splicing fitness came to 0.00474.

Take A111U A120G A145U C150A U176A: the reverse-splicing fitness stood at 0.0129.

Turning to A111U A120U A145G C150A C169G, the reverse-splicing fitness was found to be 0.00946.

Regarding A111U A120U A145G C150A C169U, the reverse-splicing fitness worked out at 0.012.

A111U A120U A145G C150A C169A: the reverse-splicing fitness turned out to be 0.00554.

Turning to A111U A120G A145G C150U C169U, the reverse-splicing fitness was found to be 0.133.

As for A111U A120G A145G C150U C169G, the reverse-splicing fitness came out at 0.166.

For the variant A111U A120U A145G C150U C169G U176G, the reverse-splicing fitness is 0.0024.

Turning to A111U A120U A145G C150U C169G U176C, the reverse-splicing fitness was found to be 0.00802.

For the variant A111U A120U A145G C150U C169G U176A, the reverse-splicing fitness was found to be 0.00769.

For A111U A120U A145G C169U U176C, the reverse-splicing fitness stood at 0.0176.

On to A111U A120U A145G C169U U176G, for which the reverse-splicing fitness came out at 0.00258.

In the case of A111U A120U A145G C169U U176A, the reverse-splicing fitness worked out at 0.0114.

Consider A111U A120U A145G U176G, for which the reverse-splicing fitness is 0.0546.

As to A111U A120U A145G U176A, the reverse-splicing fitness worked out at 0.27.

As for A111U A120U A145G U176C, the reverse-splicing fitness turned out to be 0.266.

A111U A120G C150U U176C: the reverse-splicing fitness stood at 0.0413.

A111U A120G C150U U176G: the reverse-splicing fitness was 0.00616.

For A111U A120G C150U U176A, the reverse-splicing fitness stood at 0.0266.

For the variant A111U A120U A145U C150G C169A, the reverse-splicing fitness is 0.00326.

Take A111U A120U A145U C150G C169U: the reverse-splicing fitness was 0.00751.

In the case of A111U A120U A145U C150G C169G, the reverse-splicing fitness came to 0.00597.
